Measured values: the supplement of paper PMC9170038

test system: K4 kissing-loop RNA reporter; experiment: apparent KD of K4 kissing-loop reporter; higher = weaker reporter binding; conditions: Eterna round: R107; input ligand: FMN 200 uM
Method: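 RNA-MaP round R107: designed RNA switches with theophylline, tryptophan, arginine or FMN aptamers are transcribed on-chip within common flanks. They are titrated with a labelled K4 kissing-loop RNA reporter in RNA-MaP buffer (100 mM Tris pH 7.5, 80 mM KCl, 4 mM MgCl2), without ligand or with the indicated ligand. Median apparent KD per design.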
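Further: bound reporter read as fluorescence of individual clusters on recovered sequencing chips by microscopy, with normalized cluster intensities fitted with a binding model.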

| Sequence | apparent KD of K4 kissing-loop reporter [nM] |
| --- | --- |
| CUGUUUGGUUGAGAGGUUGGGCGGAAUGAUACCAGUAUAUAAGAAUACCCUUGGCAGCAUAAGAAAGAUAUAGUGAUGUUGUAUA [SSTheophA.K] | 526 |
| UCGCCAAAGUCGGCCGCCACUCCGGGCCCUAUAAAUGGGCGCAGUGAUGUUGCGGCUAGGCCUCUGAGGACCGGGACUUUGUAAA [Tiesgeza] | 119 |
| AAUACCUGAGUGAUGUUCAGGGAAUCAGAAGGAGCGUCAAUUAUGACAGGUAGGUCGCUGAAUACAUGUGUGUAUACACAUGUAC [Arg A SS t4] | 217 |
| AAUAGGGAUAGUGAUGUUAUCCCUUAUGAUACCAGUGCCAUCGGACACCCUUGGCAGCAUACGGGCAGUGAUGUUGUUCUUGGAG [Exclusion Theophylline A GF 15] | 103 |
| UUGGACCUUAGCCUCAAUAGAACUUUGUUACGAGGACCGGUACGGCCGCCACUCGUCGGGCUCCGAUAGCCAGUGAUGUUGGCAA [theeternabot_sameState_KL_Trp_A_16] | 429 |
| AGGAUGUAGUGAUGUUAUAUAAGAAGUAAACGAGGACCGGUACGGCCGCCACUCGAAACGGCUACUAGCGCGUUGCGAGGUGUGC [ExTryptoA.Cf] | 425 |
| GUCUGUGUACUAGGAUAUGGUUGCAGGCAGUCAGGUCGCCUUUUCGGCGGCCAGUGAUGUUGGUGGCCAGAAGGAGUACGUGAUG [Raorin] | 776 |
| UGACAUUGCUCAGAUACCAGACUUGAGGAUCACCCAAGUGCCAAAACGUACUAAAUAAAAGUCCCUUGGCAGCUGAGCAAUGUCU [TheoBX 13] | 49.2 |
| CGCCGAUUGUCGGAGUGAUGUUCCCGGGAUACCAGCACGUCGUCAUGCCCUUGGCAGCCCAACAGACCAUUUUAAAGGCUAGCUG [theeternabot_sameState_KL_Theo_A_35] | 330 |
| CUCGUGGGUUUGAGAGGGUUUGUGGGAAGUGAGGAUAUUUAGGGAGAAAGAAGGCACUAUAAAAUAUAGUGAUGUUAUAUAAGGG [SSFMNA.L] | 277 |
| AAUUAAUACAGAAGGAGCGUGAAAUUAUCUACUUUUAACUUAGCGAGUGAUGUUCGUUUUUCACAGGUAGGUCGCUGUAUAUUUA [JR_ExcArginiB_Sub009] | 167 |
| UAAAUAAAAUCCUAGUGAUGUUAGGAUAUGUAGGAUAUCGGGAUACCGAGAAGGACAGAAGGAGGAGUGAUGUUCCUCAAUAAAU [FmnAX 30 #DoubleAptamer #DoubleK4 #OpenEnded] | 72 |
| AUCAUUAGUUCGGCCGCCACUCCAGUGAUGUUGGAGGGACGCAUAAUAUGCGCGCGGCCAACUAGGAGGACCGGGAACUUUAAGC [Intionge] | 120 |
| GAAUAAUAAGUAGCAGUGAUGUUGCUACUACGAGGACCGGUACGGCCGCCACUCGAAUACGAGUGGACACUGCUACUACCACUCG [(H1)-(H2)-(Trp1)-(Trp2)-(T)'-(H)'-(T)''_Design8] | 121 |
| AGACUUCACCGAAGGAGCGACGUGGUCUAGUGAUGUUAGACACGAGAGAAAUCUCGUAUACGUCAGGUAGGUCGCGGUGAAGUCA [Omei KL Arginine B SS C v9] | 147 |
| UUUAAAUAUAGUGAUGUUAUAUAACAAUGACGAGGACCGGUACGGCCGCCACUCGAGAGAGAUAAUGAUAAAAUAAAUAAUUUUC [AstrosSSTrypA#1] | 480 |
| UUUAAAUAUAGUGAUGUUAUAUAACAAUGACGAGGACCGGUACGGCCGCCACUCGAGAGAGAUAAUGAUAAAAUACAUAAUUUUC [AstrosSSTrypA#2] | 668 |
| CACGAUGAAUUCUCUAGGAGUGAUGUUUUUCGAGGACCGGUACGGCCGCCACUCGGACGACGAGUGUGGUAGCGGGCUGAAGACU [zgullin] | 429 |
| UAUUCUGUUCGAAAGAACGGAAUUUCGGAAGGAGCGAGAGAAAUCUCAGGUAGGUCGCCGAAAUUAUUAGAUAGUGAUGUUAUCU [Arginine A K4 4] | 162 |
| ACAGUUGCUAGUGAUACCAGACUAGCACUACGUAGUAUGUCAAGUGAUGUUUGACAACUAGUCCCUUGGCAGCGCGAUACGACUG [#12 K4 Theophylline B Same State] | 181 |
| AAGAGAUAGGGAGGAUAUGCCCUAUUGAGAACCGAGUGAUGUUCGGUAGGACAAAUAGUCCACAGGGUAGAAGGCCCACAUCACA [SS FNM B Tesla 2] | 191 |
| GUGGUUUACGUAGGAUAUCGAUGAUGAGUAAAUGGAGUGAUGUUCCGAGAUUGAAUAUGAGAUGAGCGAGAAGGGCGGUUUAUGC [FMN B Same State; Euporia Solution 2] | 32.8 |

| Sequence | apparent KD of K4 kissing-loop reporter [nM] |
| --- | --- |
| UAAGACAUGAAAGGAUAUCCGAUAUGGAGCCUUUAGUGAUGUUAGGAGCUAGCCGUAGACAAGAUCGGAGAAGGUUCAACCCACA [theeternabot_sameState_KL_FMN_B_13] | 787 |
| CCGGCCCAGCCGGAUACCAGUGCGCCGCAGGGAACGGCGGGCCCAGAGUGAUGUUCGGGACACCCUUGGCAGCCGCCUGGGUCGU [#2 Same State - Theophylline B Attempt #28 (HarryS)] | 414 |
| UAUACGAAGCAGUGAUGUUGCUUAUGAGAAGGAGCGCACGAAAGUGCAGGUAGGUCGCUCAGCCAUGUGGACGAAAACGUCCACA [whbob_SS_Arginine_A_sa110] | 108 |
| GUGCGGUGGAGGCUACCGCUACUCUGAGAAGGAGCGCAGAUGACUGCAGGUAGGUCGCUUAGAGCUUGCAGUGAUGUUGCAAGUU [Teorzaqu] | 166 |
| UGGAGUUGACGAAAAGUCAACUCCUGAGAAGGAGCGGACGAAAGUCCAGGUAGGUCGCUCACUACCAGUGAUGUUGGUAAUUCAA [#OpenEnded 3] | 269 |
| GGGUAUUACGGAGGAUAUGCACUGAGGAGGAGAAUAUAGUGAUGUUAUAUAAGAGGAAGGAGAAGAGUAGAAGGCCGUGGUAUUG [SSFMNB.H] | 247 |
| AUUUAAUGUAUAGAUUAUAUACAUUAUUCAGAGGAUAUGCUUUGAAGCAGAAGGCUGGAUGUAGUGAUGUUGCAAUUUUAAUUUA [JR_SSFMNA_Sub006] | 214 |
| CCAGGACGAUGAGGAGGAUGAAUUACUGAAGGAGCGCAUAUGGUUGCAGGUAGGUCGCGGUGAACAAGUAUAGUGAUGUUAUAUC [SSArgA.S] | 365 |
| CAGAUCACAGAGUGAUGUUCUGUGUCCGAAGGAGCGCGCGAGAGCGCAGGUAGGUCGCGGAUACAGUUGACGUACCAUCUAGACA [Arg A Ex t3b] | 306 |
| GAAUUAUGUAGAAGGAGCGUCAGAAGGUAUAGGUGCGAGUGAUGUUUGGACCUGUUAAUUUGACAGGUAGGUCGCUACAGAAGGA [KL-SSArg B20 #analogue] | 533 |
| UCUGGAGCAUAUGAUACCAGCAGUGAGAGACAGGAAGUAUAGUGAUGUUAUAUGAGAGAAUGCCCUUGGCAGCGUGUGUAGUGGG [SSTheophylB.N] | 174 |
| AAGUGAUGUUGUAGUGAUGUUGUGAUGUUGCAGGAUAUAUAGUGAUGUAGAAGGGUAAGUACUGAUGUUGUUAGUGAGUGAUGUU [wwzrrmullin] | 111 |
| UGGUUUAACUGAAGGAGCGGCAAUUGAUAAGUAGAUAUAGUGAUGUUAUAUAAGAUAGAGAGCCAGGUAGGUCGCAGAGGUGUUU [ExArgB.Q] | 208 |
| ACCUACGAUCACAAAAGUGAUUGUAGGAUCUAGGAUAUGCUGAAAAGCAGAAGGAGAGUGAUGUUCUCAACUCACGAAAGUGAGA [FmnAX 1 #OpenEnded #K4Late] | 354 |
| CCAUCGCUAUUCGAUACCAGUCAUUAAAUCUUUGGUUUAAUAAAGGAGUGAUGUUCCCAAGACCCUUGGCAGCGAAUAGUGAUGG [Theophylline B K4 9] | 213 |
| GGCUCCUACGCAGGAUAUAGUAGCCGAGAGUGAUGUUCUACGGCGUUUGCCGAUUUAGUCACAGAUCUAGAAGGGUGUAGGAGCC [XFMN-B PiClone] | 1040 |
| AGACUUCACCGAAGGAGCGACGUAGCCUAGUGAUGUUAGGCAAGAGAGAAAUCUCUUAUACGUCAGGUAGGUCGCGGUGAAGUCA [Omei KL Arginine B SS C v2] | 197 |
| GUAGGAUGAGGAGGAGGAUGAAUUACUGAAGGAGCGCAAAGAAAUGCAGGUAGGUCGCGGUAAAGAAGUAUAGUGAUGUUAUAUC [#08 K4 Arginine A Same State] | 588 |
| CUCUUCUUUCUUUUAGUGAUGUUAAAUUAGCGAGGACCGGUACGGCCGCCACUCGUAUAGCUGGAAUGACUGUGCGAGGGUUUGU | 960 |
| AGACUACCACACUGUCAAUAGACAGUGAACUAGGAUAUGCUGAUAAGCAGAAGGAGUGAUGUUCCCAGGUAGUCAAUAAAAUAAU [FmnAX 13 C66] | 170 |
| GGACGCCGGUCGGCCGCCACUCACAGCAGCCAGUGAUGUUGGAUUGUAGCGGAGUGAUGUUCCGAGAGGACCGGGACUGCAGUCU [Same State Tryptophan B GF 11] | 161 |

same assay, conditions: Eterna round: R107; input ligand: arginine 13.2 mM

| Sequence | apparent KD of K4 kissing-loop reporter [nM] |
| --- | --- |
| CUGUUUGGUUGAGAGGUUGGGCGGAAUGAUACCAGUAUAUAAGAAUACCCUUGGCAGCAUAAGAAAGAUAUAGUGAUGUUGUAUA [SSTheophA.K] | 297 |
| UCGCCAAAGUCGGCCGCCACUCCGGGCCCUAUAAAUGGGCGCAGUGAUGUUGCGGCUAGGCCUCUGAGGACCGGGACUUUGUAAA [Tiesgeza] | 85.2 |
| AAUACCUGAGUGAUGUUCAGGGAAUCAGAAGGAGCGUCAAUUAUGACAGGUAGGUCGCUGAAUACAUGUGUGUAUACACAUGUAC [Arg A SS t4] | 189 |
| AAUAGGGAUAGUGAUGUUAUCCCUUAUGAUACCAGUGCCAUCGGACACCCUUGGCAGCAUACGGGCAGUGAUGUUGUUCUUGGAG [Exclusion Theophylline A GF 15] | 75.5 |
| UUGGACCUUAGCCUCAAUAGAACUUUGUUACGAGGACCGGUACGGCCGCCACUCGUCGGGCUCCGAUAGCCAGUGAUGUUGGCAA [theeternabot_sameState_KL_Trp_A_16] | 405 |
| AGGAUGUAGUGAUGUUAUAUAAGAAGUAAACGAGGACCGGUACGGCCGCCACUCGAAACGGCUACUAGCGCGUUGCGAGGUGUGC [ExTryptoA.Cf] | 475 |
| GUCUGUGUACUAGGAUAUGGUUGCAGGCAGUCAGGUCGCCUUUUCGGCGGCCAGUGAUGUUGGUGGCCAGAAGGAGUACGUGAUG [Raorin] | 659 |
| UGACAUUGCUCAGAUACCAGACUUGAGGAUCACCCAAGUGCCAAAACGUACUAAAUAAAAGUCCCUUGGCAGCUGAGCAAUGUCU [TheoBX 13] | 45.9 |
| CGCCGAUUGUCGGAGUGAUGUUCCCGGGAUACCAGCACGUCGUCAUGCCCUUGGCAGCCCAACAGACCAUUUUAAAGGCUAGCUG [theeternabot_sameState_KL_Theo_A_35] | 97.8 |
| CUCGUGGGUUUGAGAGGGUUUGUGGGAAGUGAGGAUAUUUAGGGAGAAAGAAGGCACUAUAAAAUAUAGUGAUGUUAUAUAAGGG [SSFMNA.L] | 141 |
